Reference: patent publication US20160200782A1 (MOERAE MATRIX, published 2016)

T1: Ron(h) (human, UniProt Q04912 983-1400, limits assumed)
T1 sequence (looked up): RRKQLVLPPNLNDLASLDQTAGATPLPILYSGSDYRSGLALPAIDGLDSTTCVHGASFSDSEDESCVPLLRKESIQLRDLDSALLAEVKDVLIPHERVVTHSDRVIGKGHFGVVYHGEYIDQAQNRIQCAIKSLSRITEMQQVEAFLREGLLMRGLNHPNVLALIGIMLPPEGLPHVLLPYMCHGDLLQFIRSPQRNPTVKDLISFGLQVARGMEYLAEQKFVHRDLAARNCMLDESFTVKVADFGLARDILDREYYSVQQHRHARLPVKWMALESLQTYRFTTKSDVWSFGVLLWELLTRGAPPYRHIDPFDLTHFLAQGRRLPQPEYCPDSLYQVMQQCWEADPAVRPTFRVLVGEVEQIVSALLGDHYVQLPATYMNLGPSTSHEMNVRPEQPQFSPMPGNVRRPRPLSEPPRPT

T2: TSSK1(h) (human, UniProt Q9BXA7 1-367)
T2 sequence (looked up): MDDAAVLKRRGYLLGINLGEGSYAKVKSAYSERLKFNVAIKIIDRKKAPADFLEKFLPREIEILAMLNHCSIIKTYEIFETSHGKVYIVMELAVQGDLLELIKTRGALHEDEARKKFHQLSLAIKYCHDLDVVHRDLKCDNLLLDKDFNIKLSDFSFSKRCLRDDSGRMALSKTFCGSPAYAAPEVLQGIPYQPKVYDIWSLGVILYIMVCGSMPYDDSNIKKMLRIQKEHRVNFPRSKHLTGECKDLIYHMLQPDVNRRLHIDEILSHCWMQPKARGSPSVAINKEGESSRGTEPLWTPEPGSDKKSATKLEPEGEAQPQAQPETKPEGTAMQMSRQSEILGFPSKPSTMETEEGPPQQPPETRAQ

T3: DDR2(h) (human, UniProt Q16832 422-855, limits assumed)
T3 sequence (looked up): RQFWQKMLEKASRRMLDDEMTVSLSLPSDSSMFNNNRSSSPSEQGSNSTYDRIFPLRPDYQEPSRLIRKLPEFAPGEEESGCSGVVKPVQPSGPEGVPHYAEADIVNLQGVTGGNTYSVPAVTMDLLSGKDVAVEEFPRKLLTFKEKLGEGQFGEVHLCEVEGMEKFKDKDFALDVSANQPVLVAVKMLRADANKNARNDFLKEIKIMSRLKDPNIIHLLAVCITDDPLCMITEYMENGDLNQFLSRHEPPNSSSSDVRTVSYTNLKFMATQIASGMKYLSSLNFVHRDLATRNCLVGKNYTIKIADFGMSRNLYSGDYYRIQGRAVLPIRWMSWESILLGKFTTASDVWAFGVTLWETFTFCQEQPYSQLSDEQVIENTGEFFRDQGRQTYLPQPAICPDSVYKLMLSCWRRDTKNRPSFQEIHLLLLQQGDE

T4: Fms(Y969C)(h) (human, UniProt P07333 538-972, limits assumed)
T4 sequence (looked up): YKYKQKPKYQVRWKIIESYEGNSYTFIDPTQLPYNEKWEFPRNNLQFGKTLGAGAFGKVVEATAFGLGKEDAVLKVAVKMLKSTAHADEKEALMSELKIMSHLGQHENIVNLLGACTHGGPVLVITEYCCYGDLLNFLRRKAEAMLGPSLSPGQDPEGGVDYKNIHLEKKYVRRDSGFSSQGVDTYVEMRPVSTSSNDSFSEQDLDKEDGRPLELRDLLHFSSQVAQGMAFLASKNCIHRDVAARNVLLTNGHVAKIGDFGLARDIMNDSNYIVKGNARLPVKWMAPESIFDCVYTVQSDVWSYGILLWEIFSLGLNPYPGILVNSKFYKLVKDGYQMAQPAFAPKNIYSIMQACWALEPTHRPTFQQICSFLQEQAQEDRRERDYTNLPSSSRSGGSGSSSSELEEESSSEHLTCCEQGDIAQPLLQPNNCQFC

T5: EphB4(h) (human, UniProt P54760 561-987, limits assumed)
T5 sequence (looked up): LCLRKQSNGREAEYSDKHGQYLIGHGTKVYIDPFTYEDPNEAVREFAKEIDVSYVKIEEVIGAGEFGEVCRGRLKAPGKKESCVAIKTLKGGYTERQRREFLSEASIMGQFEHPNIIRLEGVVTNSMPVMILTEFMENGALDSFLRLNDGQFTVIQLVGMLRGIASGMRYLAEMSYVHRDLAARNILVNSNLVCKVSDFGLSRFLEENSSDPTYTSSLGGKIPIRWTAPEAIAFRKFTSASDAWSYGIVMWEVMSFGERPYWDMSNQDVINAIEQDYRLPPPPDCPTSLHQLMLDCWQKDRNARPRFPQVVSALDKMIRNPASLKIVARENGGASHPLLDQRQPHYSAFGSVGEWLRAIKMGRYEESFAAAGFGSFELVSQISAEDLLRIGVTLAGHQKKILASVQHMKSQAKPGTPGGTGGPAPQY

T6: EphA2(h) (human, UniProt P29317 559-976, limits assumed)
T6 sequence (looked up): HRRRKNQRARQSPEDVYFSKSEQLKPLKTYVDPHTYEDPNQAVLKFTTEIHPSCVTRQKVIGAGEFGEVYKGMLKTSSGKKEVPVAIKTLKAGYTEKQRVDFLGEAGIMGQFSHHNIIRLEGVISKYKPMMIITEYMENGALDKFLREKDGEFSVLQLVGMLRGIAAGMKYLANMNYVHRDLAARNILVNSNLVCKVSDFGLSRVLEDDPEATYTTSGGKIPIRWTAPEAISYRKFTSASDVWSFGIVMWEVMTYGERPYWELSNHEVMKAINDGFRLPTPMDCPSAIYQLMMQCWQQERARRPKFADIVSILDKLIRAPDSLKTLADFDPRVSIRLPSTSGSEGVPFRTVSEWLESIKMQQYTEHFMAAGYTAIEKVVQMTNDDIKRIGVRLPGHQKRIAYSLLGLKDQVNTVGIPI


Legend:
Experiment in all cases: cell-based or functional assay
Ron(h) = target: T1, Ron(h)
TSSK1(h) = target: T2, TSSK1(h)
HIPK1(h) = HIPK1(h) (human, UniProt Q86Z02 158-555, limits assumed)
DDR2(h) = target: T3, DDR2(h)
MSK2(h) = MSK2(h) (human, UniProt O75676 1-772, limits assumed)
Fms(Y969C)(h) = target: T4, Fms(Y969C)(h)
EphB4(h) = target: T5, EphB4(h)
MAPK2(h) = MAPK2(h) (human, UniProt P28482 1-360)
EphA2(h) = target: T6, EphA2(h)
Further: test concentration or dose not given here.

MSK2(h), sequence (O75676 whole entry): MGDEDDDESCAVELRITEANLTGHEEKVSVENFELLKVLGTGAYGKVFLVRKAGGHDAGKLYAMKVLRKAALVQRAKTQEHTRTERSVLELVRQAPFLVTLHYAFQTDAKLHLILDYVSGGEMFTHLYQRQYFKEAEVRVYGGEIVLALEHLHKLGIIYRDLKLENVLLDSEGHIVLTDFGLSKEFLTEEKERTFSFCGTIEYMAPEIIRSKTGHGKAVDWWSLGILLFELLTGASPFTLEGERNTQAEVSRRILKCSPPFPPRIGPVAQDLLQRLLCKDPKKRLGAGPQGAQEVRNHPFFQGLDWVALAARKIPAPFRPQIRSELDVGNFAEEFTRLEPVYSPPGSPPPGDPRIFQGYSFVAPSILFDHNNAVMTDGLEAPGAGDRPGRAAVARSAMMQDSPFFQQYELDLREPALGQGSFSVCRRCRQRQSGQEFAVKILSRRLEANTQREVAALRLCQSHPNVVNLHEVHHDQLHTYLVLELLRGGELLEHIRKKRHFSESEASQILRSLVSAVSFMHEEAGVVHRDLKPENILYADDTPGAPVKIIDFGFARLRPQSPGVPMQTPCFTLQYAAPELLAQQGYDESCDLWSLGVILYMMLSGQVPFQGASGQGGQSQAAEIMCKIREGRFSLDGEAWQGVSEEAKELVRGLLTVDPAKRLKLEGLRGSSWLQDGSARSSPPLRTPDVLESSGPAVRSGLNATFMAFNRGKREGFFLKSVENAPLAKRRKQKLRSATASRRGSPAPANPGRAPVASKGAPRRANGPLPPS
MAPK2(h), sequence (P28482 whole entry): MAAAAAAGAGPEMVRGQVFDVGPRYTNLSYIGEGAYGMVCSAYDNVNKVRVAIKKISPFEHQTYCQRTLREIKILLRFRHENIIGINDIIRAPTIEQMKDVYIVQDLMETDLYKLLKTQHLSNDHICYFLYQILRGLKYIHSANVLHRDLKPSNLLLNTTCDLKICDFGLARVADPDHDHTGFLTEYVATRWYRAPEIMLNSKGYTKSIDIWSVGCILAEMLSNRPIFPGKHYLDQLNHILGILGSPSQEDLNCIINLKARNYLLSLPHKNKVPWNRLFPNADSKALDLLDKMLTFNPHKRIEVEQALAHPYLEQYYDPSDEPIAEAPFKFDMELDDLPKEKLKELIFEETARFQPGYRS
HIPK1(h), sequence (Q86Z02 158-555 limits assumed): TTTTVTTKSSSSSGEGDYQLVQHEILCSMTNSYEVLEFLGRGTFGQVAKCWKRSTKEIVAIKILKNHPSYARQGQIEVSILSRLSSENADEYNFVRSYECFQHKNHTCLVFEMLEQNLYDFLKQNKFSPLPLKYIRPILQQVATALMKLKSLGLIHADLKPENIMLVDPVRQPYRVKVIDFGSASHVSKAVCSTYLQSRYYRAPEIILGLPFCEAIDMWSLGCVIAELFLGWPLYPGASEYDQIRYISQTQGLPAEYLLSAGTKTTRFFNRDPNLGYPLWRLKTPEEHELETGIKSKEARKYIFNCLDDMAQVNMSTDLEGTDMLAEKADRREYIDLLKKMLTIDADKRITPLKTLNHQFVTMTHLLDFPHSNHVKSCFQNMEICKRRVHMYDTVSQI

% activity (Ron(h)) [%] | % activity (TSSK1(h)) [%] | % activity (HIPK1(h)) [%] | % activity (DDR2(h)) [%] | % activity (MSK2(h)) [%] | % activity (Fms(Y969C)(h)) [%] | % activity (EphB4(h)) [%] | % activity (MAPK2(h)) [%] | % activity (EphA2(h)) [%] | Binder
93 | 79 | 74 | 94 | 56 | 72 | 44 | 98 | 31 | FAKLAARLYRKALARQLGVAA [MMI-0300]
79 | 79 | 91 | 95 | 52 | 91 | 28 | 93 | 17 | KAFAKLAARLYRKALARQLGVAA [MMI-0400]
